Source: ChEMBL document CHEMBL4304758, “Development of Peptide-Based Sirtuin Defatty-Acylase Inhibitors Identified by the Fluorescence Probe, SFP3, That Can Efficiently Measure Defatty-Acylase Activity of Sirtuin” (J Med Chem, 2019)

Legend:
[1] = compound: CC[C@H](C)[C@H](NC(=O)[C@H](CCCNC(=N)N)NC(C)=O)C(=O)N[C@@H](CCCCNC(=O)Cc1ccc(/N=N/c2ccc(O)cc2)cc1)C(=O)N[C@@H](CCCNC(=N)N)C(=O)N[C@@H](Cc1ccc(O)cc1)C(N)=O; test: Mixed-inhibition of recombinant human SIRT2 defatty-acylase activity assessed as substrate Km at 20 nM using varying levels of SFP3 as substrate measured at 1 min interval for 30 mins in presence of NAD+ by Michaelis-Menten plot analysis (reference value: 0.55 +/- 0.04 uM)
[2] = compound: CCCCCCCCCCCCCC(=S)NCCCC[C@H](NC(=O)[C@@H](NC(=O)[C@H](CCCNC(=N)N)NC(C)=O)[C@@H](C)CC)C(=O)N[C@@H](CCCNC(=N)N)C(=O)N[C@@H](Cc1ccc(O)cc1)C(N)=O; test: as above
[3] = compound: CC[C@H](C)[C@H](NC(=O)[C@H](CCCNC(=N)N)NC(C)=O)C(=O)N[C@@H](CCCCNC(=O)Cc1ccc(/N=N/c2ccc(O)cc2)cc1)C(=O)N[C@@H](CCCNC(=N)N)C(=O)N[C@@H](Cc1ccc(O)cc1)C(N)=O; test: Mixed-inhibition of recombinant human SIRT2 defatty-acylase activity assessed as substrate Km at 30 nM using varying levels of SFP3 as substrate measured at 1 min interval for 30 mins in presence of NAD+ by Michaelis-Menten plot analysis (reference value: 0.55 +/- 0.04 uM)
[4] = compound: CCCCCCCCCCCCCC(=S)NCCCC[C@H](NC(=O)[C@@H](NC(=O)[C@H](CCCNC(=N)N)NC(C)=O)[C@@H](C)CC)C(=O)N[C@@H](CCCNC(=N)N)C(=O)N[C@@H](Cc1ccc(O)cc1)C(N)=O; test: as above
[5] = compound: CC[C@H](C)[C@H](NC(=O)[C@H](CCCNC(=N)N)NC(C)=O)C(=O)N[C@@H](CCCCNC(=O)Cc1ccc(/N=N/c2ccc(O)cc2)cc1)C(=O)N[C@@H](CCCNC(=N)N)C(=O)N[C@@H](Cc1ccc(O)cc1)C(N)=O; test: Mixed-inhibition of recombinant human SIRT2 defatty-acylase activity assessed as substrate Km at 15 nM using varying levels of SFP3 as substrate measured at 1 min interval for 30 mins in presence of NAD+ by Michaelis-Menten plot analysis (reference value: 0.55 +/- 0.04 uM)
[6] = compound: CCCCCCCCCCCCCC(=S)NCCCC[C@H](NC(=O)[C@@H](NC(=O)[C@H](CCCNC(=N)N)NC(C)=O)[C@@H](C)CC)C(=O)N[C@@H](CCCNC(=N)N)C(=O)N[C@@H](Cc1ccc(O)cc1)C(N)=O; test: as above

B1: NAD-dependent protein deacetylase sirtuin-2 (Homo sapiens), Q8IXJ6 (protein)
chain: MAEPDPSHPLETQAGKVQEAQDSDSDSEGGAAGGEADMDFLRNLFSQTLSLGSQKERLLDELTLEGVARYMQSERCRRVICLVGAGISTSAGIPDFRSPSTGLYDNLEKYHLPYPEAIFEISYFKKHPEPFFALAKELYPGQFKPTICHYFMRLLKDKGLLLRCYTQNIDTLERIAGLEQEDLVEAHGTFYTSHCVSASCRHEYPLSWMKEKIFSEVTPKCEDCQSLVKPDIVFFGESLPARFFSCMQSDFLKVDLLLVMGTSLQVQPFASLISKAPLSTPRLLINKEKAGQSDPFLGMIMGLGGGMDFDSKKAYRDVAWLGECDQGCLALAELLGWKKELEDLVRREHASIDAQSGAGVPNPSTSASPKKSPPPAKDEARTTEREKPQ
In the case of B1, the Km [1] is reported as 1.1 µM, the Km [2] is reported as 0.48 µM and the Km [3] is reported as 2.5 µM. It also gave a Km [4] of 1.1 µM, a Km [5] of 0.76 µM and a Km [6] of 0.47 µM.
